We go through 60 sequences from the supplement of paper PMC7877785.

This data set can be described thus: self-splicing fitness, log relative to wild type (ln ratio); higher = more splicing; Tetrahymena group I intron in knt gene, E. coli kanamycin selection, DiMSum; sequences stand for … in CUCUCU…GGAGGGAAAAGUUAUCAGGCAUGCACCUGGUAGCUAGUCUUUAAACCAAUAGAUUGCAUCGGUUUAAAAGGCAAGACCGUCAAAUUGCGGGAAAGGGGUCAACAGCCGUUCAGUACCAAGUCUCAGGGGAAACUUUGAGAUGGCCUUGCAAAGGGUAUGGUAAUAAGCUGACGGACAUGGUCCUAACCACGCAGCCAAGUCCUAAGUCAACAGAUCUUCUGUUGAUAUGGAUGCAGUUCACAGACUAAAUGUCGGUCGGGGAAGAUGUAUUCUUCUCAUAAGAUAUAGUCGGACCUCUCCUUAAUGGGAGCUAGCGGAUGAAGUGAUGCAACACUGGAGCCGCUGGGAACUAAUUUGUAUGCGAAAGUAUAUUGAUUAGUUUUGGAGUACUCGUGGUCG
The gist of the method:
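Colonies from six replicate transformations of E. coli BL21(DE3) were pooled and amplicon-sequenced on an Illumina HiSeq 2500. The library placed an intron with all eight P1ex-region nucleotides randomised inside the knt kanamycin-resistance gene on pET-22b(+), and cells grew overnight at 37°C or 30°C on LB agar with or without 25 μg/mL kanamycin (plus 100 μg/mL carbenicillin, 50 μM IPTG, 0.2% rhamnose). Fitness is the DiMSum error-weighted combination of wild-type-normalised replicate fold changes, kanamycin versus none.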

± gives the uncertainty stated by the source.

With GCAGAGCAAUAUUACGCAGU, the “self-splicing fitness (ln)” value was -3.61 ± 0.29 (30 °C) and -1.86 ± 0.3 (37 °C).

For GCAGAGCAAUAUUACGCCAU, the “self-splicing fitness (ln)” value is -3.75 ± 0.4 (30 °C) and -2.78 ± 0.32 (37 °C). For the sequence GCAGAGCAAUAUUACGCCGA, the “self-splicing fitness (ln)” value (37 °C) was -0.676 ± 0.34. Consider GCAGAGCAAUAUUACGCCUA, for which the “self-splicing fitness (ln)” value (37 °C) was -2.09 ± 0.3. With GCAGAGCAAUAUUACGCUAG, the “self-splicing fitness (ln)” value is -1.83 ± 0.44 (30 °C) and -1.79 ± 0.2 (37 °C). For GCAGAGCAAUAUUACGCUUA, in that order: -1.76 ± 0.3 and -1.99 ± 0.3.

As for GCAGAGCAAUAUUACGGCAA, the “self-splicing fitness (ln)” value is -3.59 ± 0.46 (30 °C) and -3.6 ± 0.42 (37 °C). As to GCAGAGCAAUAUUACGGGGU, the “self-splicing fitness (ln)” value is -3.34 ± 0.23 (30 °C) and -3.16 ± 0.31 (37 °C). For GCAGAGCAAUAUUACGUAUA, in that order: -1.41 ± 0.22 and -2.76 ± 0.47. In the case of GCAGAGCAAUAUUACGUCUC, where the note is “37 °C”, the “self-splicing fitness (ln)” value is -2.17 ± 0.31. Consider GCAGAGCAAUAUUACGUUCG, for which the “self-splicing fitness (ln)” value by setting is: (30 °C) -1.91 ± 0.14; (37 °C) -1.99 ± 0.3.

Turning to GCAUAGCAAUAUUACGAACC, the “self-splicing fitness (ln)” value runs as follows: (30 °C) -1.45 ± 0.089; (37 °C) 0.452 ± 0.1. Consider GCAUAGCAAUAUUACGAACU, for which the “self-splicing fitness (ln)” value by setting is: (30 °C) -1.11 ± 0.084; (37 °C) -0.315 ± 0.11.

As for GCAUAGCAAUAUUACGACAC, the “self-splicing fitness (ln)” value was 0.147 ± 0.14 (30 °C) and -0.214 ± 0.19 (37 °C).

As to GCAUAGCAAUAUUACGACCC, the “self-splicing fitness (ln)” value is, setting by setting: (30 °C) -0.0863 ± 0.27; (37 °C) 0.324 ± 0.39. The matching figures for GCAUAGCAAUAUUACGAGAC: -2.7 ± 0.32 and -1.59 ± 0.23.

Regarding GCAUAGCAAUAUUACGAUCA, the “self-splicing fitness (ln)” value (30 °C) was -2.05 ± 0.34 and the “self-splicing fitness (ln)” value (37 °C) came to 0.131 ± 0.22. Regarding GCAUAGCAAUAUUACGCAUC, the “self-splicing fitness (ln)” value was -3.1 ± 0.23 (30 °C) and -3.22 ± 0.27 (37 °C).

Turning to GCAUAGCAAUAUUACGCGUU, the “self-splicing fitness (ln)” value is, setting by setting: (30 °C) -2.03 ± 0.11; (37 °C) -2.14 ± 0.17. As for GCAUAGCAAUAUUACGCUAA, the “self-splicing fitness (ln)” value runs as follows: (30 °C) -2.72 ± 0.27; (37 °C) -2.49 ± 0.22. As to GCAUAGCAAUAUUACGCUUA, the “self-splicing fitness (ln)” value was -1.6 ± 0.14 (30 °C) and -1.18 ± 0.1 (37 °C). For GCAUAGCAAUAUUACGGACC, in that order: -0.439 ± 0.1 and -0.576 ± 0.093. For GCAUAGCAAUAUUACGGAGG, the “self-splicing fitness (ln)” value (30 °C) was -3.03 ± 0.12 and the “self-splicing fitness (ln)” value (37 °C) was -3.37 ± 0.21. In the case of GCAUAGCAAUAUUACGGCAA, the “self-splicing fitness (ln)” value is -1.49 ± 0.18 (30 °C) and -0.271 ± 0.17 (37 °C). With GCAUAGCAAUAUUACGGCUC, the “self-splicing fitness (ln)” value reads like this: (30 °C) 0.0416 ± 0.087; (37 °C) -0.0445 ± 0.088. For GCAUAGCAAUAUUACGGGUA, in that order: -0.992 ± 0.12 and -1.11 ± 0.11. As for GCAUAGCAAUAUUACGGGUG, the “self-splicing fitness (ln)” value (30 °C) was -2.29 ± 0.13 and the “self-splicing fitness (ln)” value (37 °C) was -1.82 ± 0.12. Take GCAUAGCAAUAUUACGGUCA: the “self-splicing fitness (ln)” value was -0.966 ± 0.09 (30 °C) and -0.953 ± 0.096 (37 °C). Regarding GCAUAGCAAUAUUACGGUCG, the “self-splicing fitness (ln)” value reads like this: (30 °C) -1.77 ± 0.12; (37 °C) -1.12 ± 0.12. The matching figures for GCAUAGCAAUAUUACGGUUU: -1.62 ± 0.08 and -0.625 ± 0.085. For the sequence GCAUAGCAAUAUUACGUAAU, the “self-splicing fitness (ln)” value reads like this: (30 °C) -2.58 ± 0.1; (37 °C) -0.793 ± 0.096. GCAUAGCAAUAUUACGUCUC: the “self-splicing fitness (ln)” value reads like this: (30 °C) -1.85 ± 0.14; (37 °C) -0.552 ± 0.11. As for GCAUAGCAAUAUUACGUGAG, the “self-splicing fitness (ln)” value is, setting by setting: (30 °C) -0.159 ± 0.069; (37 °C) -0.351 ± 0.083. In the case of GCAUAGCAAUAUUACGUGCC, the “self-splicing fitness (ln)” value by setting is: (30 °C) -3.42 ± 0.21; (37 °C) -1.03 ± 0.29.

With GCAUAGCAAUAUUACGUUAA, the “self-splicing fitness (ln)” value is -2.44 ± 0.19 (30 °C) and -1.81 ± 0.15 (37 °C). Take GCCAAGCAAUAUUACGAAAC: the “self-splicing fitness (ln)” value is, setting by setting: (30 °C) -2.15 ± 0.14; (37 °C) -0.23 ± 0.14. In the case of GCCAAGCAAUAUUACGAAAU, the “self-splicing fitness (ln)” value is -3.24 ± 0.19 (30 °C) and -2.28 ± 0.18 (37 °C). Regarding GCCAAGCAAUAUUACGACCG, the “self-splicing fitness (ln)” value (30 °C) was -3.81 ± 0.22 and the “self-splicing fitness (ln)” value (37 °C) was -2.01 ± 0.12. On to GCCAAGCAAUAUUACGACGU, for which the “self-splicing fitness (ln)” value is, setting by setting: (30 °C) -0.238 ± 0.099; (37 °C) 0.0827 ± 0.088.

As for GCCAAGCAAUAUUACGAGAA, the “self-splicing fitness (ln)” value was -2.69 ± 0.4 (30 °C) and -0.69 ± 0.35 (37 °C). Take GCCAAGCAAUAUUACGAGAU: the “self-splicing fitness (ln)” value was -2.41 ± 0.14 (30 °C) and -2.1 ± 0.17 (37 °C). As to GCCAAGCAAUAUUACGAGGG, the “self-splicing fitness (ln)” value (30 °C) was -2.8 ± 0.094 and the “self-splicing fitness (ln)” value (37 °C) is -1.82 ± 0.11. Turning to GCCAAGCAAUAUUACGAGUG, the “self-splicing fitness (ln)” value is -2.32 ± 0.087 (30 °C) and -1.72 ± 0.093 (37 °C). As to GCCAAGCAAUAUUACGAUGU, the “self-splicing fitness (ln)” value runs as follows: (30 °C) -0.536 ± 0.061; (37 °C) 0.0237 ± 0.084. Consider GCCAAGCAAUAUUACGAUUA, for which the “self-splicing fitness (ln)” value is -2.86 ± 0.17 (30 °C) and -2.57 ± 0.15 (37 °C). Regarding GCCAAGCAAUAUUACGCAAC, the “self-splicing fitness (ln)” value was -1.98 ± 0.13 (30 °C) and -1.32 ± 0.16 (37 °C). GCCAAGCAAUAUUACGGAAA: the “self-splicing fitness (ln)” value is, setting by setting: (30 °C) -1.46 ± 0.16; (37 °C) -1.14 ± 0.13.

As for GCCAAGCAAUAUUACGGAAC, the “self-splicing fitness (ln)” value is, setting by setting: (30 °C) -1.73 ± 0.18; (37 °C) -0.77 ± 0.18. On to GCCAAGCAAUAUUACGGAGG, for which the “self-splicing fitness (ln)” value reads like this: (30 °C) -3.49 ± 0.19; (37 °C) -1.08 ± 0.16. Regarding GCCAAGCAAUAUUACGGCUG, the “self-splicing fitness (ln)” value was -3.81 ± 0.13 (30 °C) and -3.25 ± 0.19 (37 °C).

Turning to GCCAAGCAAUAUUACGGGCU, the “self-splicing fitness (ln)” value is, setting by setting: (30 °C) -4.88 ± 0.28; (37 °C) -2.98 ± 0.23. Consider GCCAAGCAAUAUUACGGUAA, for which the “self-splicing fitness (ln)” value runs as follows: (30 °C) -0.713 ± 0.1; (37 °C) 0.0284 ± 0.1. Regarding GCCAAGCAAUAUUACGGUAU, the “self-splicing fitness (ln)” value runs as follows: (30 °C) -1.62 ± 0.069; (37 °C) 0.416 ± 0.076.

In the case of GCCAAGCAAUAUUACGGUGA, the “self-splicing fitness (ln)” value (30 °C) was -1.06 ± 0.06 and the “self-splicing fitness (ln)” value (37 °C) was -0.493 ± 0.065. For the sequence GCCAAGCAAUAUUACGGUGU, the “self-splicing fitness (ln)” value runs as follows: (30 °C) -1.48 ± 0.049; (37 °C) -0.507 ± 0.06.

For GCCAAGCAAUAUUACGUACA, the “self-splicing fitness (ln)” value is, setting by setting: (30 °C) -2.65 ± 0.16; (37 °C) -1.65 ± 0.11.

For the sequence GCCAAGCAAUAUUACGUACG, the “self-splicing fitness (ln)” value (30 °C) is -1.79 ± 0.078 and the “self-splicing fitness (ln)” value (37 °C) was -1.56 ± 0.11. As to GCCAAGCAAUAUUACGUCGA, the “self-splicing fitness (ln)” value was -2.34 ± 0.16 (30 °C) and -1.29 ± 0.14 (37 °C). For GCCAAGCAAUAUUACGUUCC, in that order: -0.712 ± 0.1 and -0.674 ± 0.16. For GCCCAGCAAUAUUACGACGC, the “self-splicing fitness (ln)” value (30 °C) was -0.00307 ± 0.052 and the “self-splicing fitness (ln)” value (37 °C) was -0.0866 ± 0.067.
